Positions count from the first letter of the chain named. In names and notes the source's numbering stands.

By Kd is commonly meant the equilibrium constant for the complex coming apart. A higher Kd goes with lower affinity. The Ki is a dissociation constant, usually derived from enzyme kinetics or from competition with a known ligand.

Experiment [1] concerns the target recombinant selenocysteine-containing rat TrxR1 (rat) (UniProt O89049).
For experiment [2], the target named is human thioredoxin reductase 1 (TrxR1) U498C mutant (human) (UniProt Q16881). The experiment in a line: differential scanning fluorimetry; 10 uM hTrxR (U498C), hTrx1 0 to 100 uM, Sypro Orange 1:500, 50 mM Tris, 1 mM EDTA, pH 7.4; Tm of the first denaturation step of TrxR plotted against log [Trx] (Hill plot), EC50 converted to Kd.
For experiment [3], the target named is T1, recombinant selenocysteine-containing rat TrxR1 (rat, UniProt O89049 1-499, selenocysteine (selenocysteine-containing; low degree of incorporation presumed by the paper)).
T1 construct: rat cytosolic thioredoxin reductase 1, selenocysteine-containing; Used for all enzymatic assays (insulin reduction); also called recombinant selenocysteine-containing TrxR
T1 sequence (looked up): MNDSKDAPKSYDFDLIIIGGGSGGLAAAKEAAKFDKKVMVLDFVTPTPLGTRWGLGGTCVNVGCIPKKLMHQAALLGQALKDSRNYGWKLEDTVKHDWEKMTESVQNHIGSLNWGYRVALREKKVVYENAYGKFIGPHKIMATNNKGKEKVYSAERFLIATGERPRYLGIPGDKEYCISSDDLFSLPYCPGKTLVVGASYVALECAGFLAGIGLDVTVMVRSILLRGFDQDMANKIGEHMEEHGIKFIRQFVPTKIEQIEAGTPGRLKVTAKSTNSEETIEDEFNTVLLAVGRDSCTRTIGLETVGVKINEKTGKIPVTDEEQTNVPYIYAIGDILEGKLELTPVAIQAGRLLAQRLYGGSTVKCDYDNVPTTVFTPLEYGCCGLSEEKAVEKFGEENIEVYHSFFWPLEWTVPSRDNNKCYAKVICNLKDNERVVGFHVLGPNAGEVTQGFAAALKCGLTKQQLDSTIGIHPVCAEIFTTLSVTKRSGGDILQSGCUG
The experiment in a line: enzyme inhibition kinetics (insulin reduction assay, NADPH depletion); 1.25 nM recombinant rat selenocysteine-containing TrxR, 150 uM NADPH, 160 uM insulin, 50 mM Tris-EDTA pH 7.5; Lineweaver-Burk plots, Ki from secondary plot of slopes against the concentration of the redox-inactive mutant. To be noted: both partners purified.

B1: human Trx1 K39E (natural protein)
chain: MVKQIESKTAFQEALDAAGDKLVVVDFSATWCGPCKMIEPFFHSLSEKYSNVIFLEVDVDDCQDVASECEVKCMPTFQFFKKGQKVGEFSGANKEKLEATINELV
For B1, the KM of TrxR1 for the Trx1 variant, insulin reduction-coupled assay in experiment [1] came to 1.45 µM. In experiment [2], this molecule yielded a Kd of 9.68 µM.

B2: human Trx1 A17R,I53R (natural protein)
chain: B1 chain with A17R, E39K, I53R
With B2, the KM of TrxR1 for the Trx1 variant, insulin reduction-coupled assay in experiment [1] came out at 2.73 µM.

B3: human Trx1 K94E (natural protein)
chain: B1 chain with E39K, K94E
As for B3, the KM of TrxR1 for the Trx1 variant, insulin reduction-coupled assay in experiment [1] worked out at 3.78 µM.

B4: human Trx1 D60N (natural protein)
chain: B1 chain with E39K, D60N
Take B4: in experiment [1], the KM of TrxR1 for the Trx1 variant, insulin reduction-coupled assay is 3.26 µM.

B5: human Trx1 S67H (natural protein)
chain: B1 chain with E39K, S67H
Take B5: in experiment [1], the KM of TrxR1 for the Trx1 variant, insulin reduction-coupled assay came to 1.36 µM.

B6: human thioredoxin 1 (Trx1), wild-type (natural protein)
chain: B1 chain with E39K
Consider B6, for which the Kd in experiment [2] amounted to 13.6 µM.

B7: human Trx1 Q63R,K94E (natural protein)
chain: B1 chain with E39K, Q63R, K94E
Regarding B7, the KM of TrxR1 for the Trx1 variant, insulin reduction-coupled assay in experiment [1] stood at 7.09 µM.

B8: human Trx1 K36E (natural protein)
chain: B1 chain with K36E, E39K
For B8, in experiment [1], the KM of TrxR1 for the Trx1 variant, insulin reduction-coupled assay came to 9.82 µM. For the same molecule, in experiment [2], the Kd amounted to 5.28 µM.

B9: human Trx1 K72E (natural protein)
chain: B1 chain with E39K, K72E
For the molecule B9, the KM of TrxR1 for the Trx1 variant, insulin reduction-coupled assay in experiment [1] stood at 2.22 µM.

B10: human Trx1 C73H (natural protein)
chain: B1 chain with E39K, C73H
Regarding B10, the KM of TrxR1 for the Trx1 variant, insulin reduction-coupled assay in experiment [1] came out at 1.24 µM.

B11: human Trx1 Q63R (natural protein)
chain: B1 chain with E39K, Q63R
Take B11: in experiment [1], the KM of TrxR1 for the Trx1 variant, insulin reduction-coupled assay was determined as 6.37 µM.

B12: human Trx1 D58,60,61N (natural protein)
chain: B1 chain with E39K, D58N, D60N, D61N
Consider B12, for which the KM of TrxR1 for the Trx1 variant, insulin reduction-coupled assay in experiment [1] was 5.83 µM.

B13: human Trx1 C32,35S (redox-inactive active site double mutant) (natural protein, UniProt P10599 1-105, looked up)
chain: B1 chain with C32S, C35S, E39K
notes: human cytosolic thioredoxin 1, both active site cysteinyl residues exchanged for seryl residues; also called hTrx1C32,35S; double cysteinyl mutant
B13: in experiment [2], the Kd was found to be 9.8 µM. The Ki in experiment [3] is 5.3 µM.

The values are drawn from PMC8189816, “Molecular Basis for the Interactions of Human Thioredoxins with Their Respective Reductases” (Oxidative Medicine and Cellular Longevity, 2021).
